Laboratory results reported in article PMC10718521, “Complexity of αvβ6-integrin targeting RGD peptide trimers: emergence of non-specific binding by synergistic interaction” (RSC Medicinal Chemistry, 2023).

Experiments:
in vivo = experiment: in vivo; design: species or system mice; settings: CB17 SCID, mouse, total radioactivity
Text: The biodistribution of all ^68Ga-labeled peptide trimers was investigated in severe combined immunodeficiency (SCID) mice bearing subcutaneous xenografts of the αvβ6-integrin expressing human lung adenocarcinoma cell line H2009 on their right shoulders.
(§1) Unless otherwise noted, the materials and the instrumentation used (analytical and preparative HPLC, ESI-MS, gamma counter, centrifuge), and the experimental procedures (^68Ga radiolabeling and radio-TLC for quality control, determination of log D7.4, cultivation of H2009 human lung adenocarcinoma cells, generation of tumor xenografts in CB17 SCID mice, small-animal PET, and biodistribution) were described before.[19] All animal experiments have been carried out according to applicable law and institutional guidelines of Technical University of Munich, and were approved by the responsible local authority (Regierung von Oberbayern). The H2009 cells were regularly authenticated and tested for mycoplasma contamination. The affinities of the pentynoic amide functionalized peptides were determined employing a well-established ELISA protocol on immobilized integrins.[36] TRAP-triazide,[38]FF (previously termed AvB6),[32] and YY (also referred to as Tyr2-alkyne)[33] were synthesized as described previously. RP-HPLC for assessment of compound polarity was done on a 150 × 4.6 mm ReproSil-Pur 120 C18-AQ 5 μm column, with a flow of 0.75 mL min^−1 and a gradient of 10–50% MeCN in water, both containing 0.1% trifluoroacetic acid, within 15 min. The required ^natGa-complexes of the peptide trimers were synthesized by reaction with equimolar amounts of aq. GaCl3 as described.[19]

[1] = type: physicochemical; settings: pH 7.4
Experimental: The trimers were labeled with ^68Ga for biodistribution and small-animal PET experiments employing a fully automated method.[39] Non-radioactive reference compounds were obtained by complexation of equimolar amounts of ^natGa^3+ in form of the aq. chloride solution.[39] The polarity of the ^68Ga or ^natGa^3+ containing conjugates, respectively, was assessed by two established proxies, namely the n-octanol/water distribution coefficient at pH 7.4, log D7.4, and the retention time tR on a reverse-phase HPLC column with a suitable liquid-phase gradient (10–50% acetonitrile in water with 0.1% trifluoroacetic acid) (see Fig. 2a). […] A measurable decrease of the log D7.4 was only observed for ≥3 Tyr. […]
as §1

[2] = tumor/organ ratio Heart (myocard)
[3] = tumor/organ ratio Large intestine (empty)
[4] = tumor/organ ratio Small intestine (empty)
[5] = tumor/organ ratio Stomach (empty)

| Structure (SMILES) | tissue uptake at 1.5 h (in vivo; Adrenals uptake) [%ID/g] | tissue uptake at 1.5 h (in vivo; Blood uptake) [%ID/g] | tissue uptake at 1.5 h (in vivo; Heart (myocard) uptake) [%ID/g] | tissue uptake at 1.5 h (in vivo; Kidneys uptake) [%ID/g] | tissue uptake at 1.5 h (in vivo; Large intestine (empty) uptake) [%ID/g] | tissue uptake at 1.5 h (in vivo; Liver uptake) [%ID/g] | tissue uptake at 1.5 h (in vivo; Lung uptake) [%ID/g] | tissue uptake at 1.5 h (in vivo; Muscle uptake) [%ID/g] | tissue uptake at 1.5 h (in vivo; Pancreas uptake) [%ID/g] | tissue uptake at 1.5 h (in vivo; Small intestine (empty) uptake) [%ID/g] | tissue uptake at 1.5 h (in vivo; Spleen uptake) [%ID/g] | tissue uptake at 1.5 h (in vivo; Stomach (empty) uptake) [%ID/g] | tissue uptake at 1.5 h (in vivo; Tumor H2009 uptake) [%ID/g] | tissue to tissue ratio at 1.5 h (in vivo; tumor/organ ratio Adrenals) | tissue to tissue ratio at 1.5 h (in vivo; tumor/organ ratio Blood) | tissue to tissue ratio at 1.5 h (in vivo; [2]) | tissue to tissue ratio at 1.5 h (in vivo; tumor/organ ratio Kidneys) | tissue to tissue ratio at 1.5 h (in vivo; [3]) | tissue to tissue ratio at 1.5 h (in vivo; tumor/organ ratio Liver) | logD [1] | further results |
| --- | --- | --- | --- | --- | --- | --- | --- | --- | --- | --- | --- | --- | --- | --- | --- | --- | --- | --- | --- | --- | --- |
| CC(C)C[C@@H]1NC(=O)[C@H](CC(=O)O)NC(=O)CNC(=O)[C@H](CCCNC(=N)N)NC(=O)[C@H](Cc2ccccc2)NC(=O)[C@H](CCCCNC(=O)CCc2cn(CCCNC(=O)CCP(=O)(O)CN3CCN(CP(=O)(O)CCC(=O)NCCCn4cc(CCC(=O)NCCCC[C@H]5C(=O)N[C@@H](Cc6ccc(O)cc6)C(=O)N[C@@H](CCCNC(=N)N)C(=O)NCC(=O)N[C@@H](CC(=O)O)C(=O)N[C@@H](CC(C)C)C(=O)N[C@@H](C)C(=O)N[C@@H](Cc6ccccc6)C(=O)N6CCC[C@@H]6C(=O)N5C)nn4)CCN(CP(=O)(O)CCC(=O)NCCCn4cc(CCC(=O)NCCCC[C@H]5C(=O)N[C@@H](Cc6ccc(O)cc6)C(=O)N[C@@H](CCCNC(=N)N)C(=O)NCC(=O)N[C@@H](CC(=O)O)C(=O)N[C@@H](CC(C)C)C(=O)N[C@@H](C)C(=O)N[C@@H](Cc6ccccc6)C(=O)N6CCC[C@@H]6C(=O)N5C)nn4)CC3)nn2)N(C)C(=O)[C@H]2CCCN2C(=O)[C@H](Cc2ccccc2)NC(=O)[C@H](C)NC1=O (68Ga complex, metal not drawn) [Y2Y] | 1.07 ± 0.27 | 1.91 ± 0.49 | 0.85 ± 0.16 | 80.8 ± 5.12 | 3.89 ± 0.73 | 2.59 ± 0.35 | 7.02 ± 1.34 | 0.63 ± 0.12 | 0.44 ± 0.07 | 2.23 ± 0.41 | 4.36 ± 0.79 | 6.55 ± 1.48 | 7.93 ± 0.28 | 7.8 ± 1.7 | 4.4 ± 1.1 | 9.6 ± 1.8 | 0.1 | 2.1 ± 0.4 | 3.1 ± 0.3 | -1.5 ± 0.1 | tissue to tissue ratio at 1.5 h (in vivo; tumor/organ ratio Lung): 1.2 ± 0.2; tissue to tissue ratio at 1.5 h (in vivo; tumor/organ ratio Muscle): 13 ± 2.5; tissue to tissue ratio at 1.5 h (in vivo; tumor/organ ratio Pancreas): 18.2 ± 2.3; tissue to tissue ratio at 1.5 h (in vivo; [4]): 3.6 ± 0.7; tissue to tissue ratio at 1.5 h (in vivo; tumor/organ ratio Spleen): 1.9 ± 0.4; tissue to tissue ratio at 1.5 h (in vivo; [5]): 1.3 ± 0.3; log D7.4 [1]: −1.4 to −1.5 |
| CC(C)C[C@@H]1NC(=O)[C@H](CC(=O)O)NC(=O)CNC(=O)[C@H](CCCNC(=N)N)NC(=O)[C@H](Cc2ccc(O)cc2)NC(=O)[C@H](CCCCNC(=O)CCc2cn(CCCNC(=O)CCP(=O)(O)CN3CCN(CP(=O)(O)CCC(=O)NCCCn4cc(CCC(=O)NCCCC[C@H]5C(=O)N[C@@H](Cc6ccc(O)cc6)C(=O)N[C@@H](CCCNC(=N)N)C(=O)NCC(=O)N[C@@H](CC(=O)O)C(=O)N[C@@H](CC(C)C)C(=O)N[C@@H](C)C(=O)N[C@@H](Cc6ccc(O)cc6)C(=O)N6CCC[C@@H]6C(=O)N5C)nn4)CCN(CP(=O)(O)CCC(=O)NCCCn4cc(CCC(=O)NCCCC[C@H]5C(=O)N[C@@H](Cc6ccc(O)cc6)C(=O)N[C@@H](CCCNC(=N)N)C(=O)NCC(=O)N[C@@H](CC(=O)O)C(=O)N[C@@H](CC(C)C)C(=O)N[C@@H](C)C(=O)N[C@@H](Cc6ccc(O)cc6)C(=O)N6CCC[C@@H]6C(=O)N5C)nn4)CC3)nn2)N(C)C(=O)[C@H]2CCCN2C(=O)[C@H](Cc2ccc(O)cc2)NC(=O)[C@H](C)NC1=O (68Ga complex, metal not drawn) [Y6] | 0.5 ± 0.11 | 1.03 ± 0.21 | 0.59 ± 0.11 | 95.7 ± 12.6 | 4.36 ± 0.77 | 0.73 ± 0.11 | 4.47 ± 1.12 | 0.68 ± 0.18 | 0.27 ± 0.04 | 2.72 ± 1.15 | 3.91 ± 0.91 | 6.24 ± 1.24 | 7.52 ± 1.21 |  |  |  |  |  |  | -2.1 ± 0.1 |  |
| CC(C)C[C@@H]1NC(=O)[C@H](CC(=O)O)NC(=O)CNC(=O)[C@H](CCCNC(=N)N)NC(=O)[C@H](Cc2ccccc2)NC(=O)[C@H](CCCCNC(=O)CCc2cn(CCCNC(=O)CCP(=O)(O)CN3CCN(CP(=O)(O)CCC(=O)NCCCn4cc(CCC(=O)NCCCC[C@H]5C(=O)N[C@@H](Cc6ccccc6)C(=O)N[C@@H](CCCNC(=N)N)C(=O)NCC(=O)N[C@@H](CC(=O)O)C(=O)N[C@@H](CC(C)C)C(=O)N[C@@H](C)C(=O)N[C@@H](Cc6ccccc6)C(=O)N6CCC[C@@H]6C(=O)N5C)nn4)CCN(CP(=O)(O)CCC(=O)NCCCn4cc(CCC(=O)NCCCC[C@H]5C(=O)N[C@@H](Cc6ccc(O)cc6)C(=O)N[C@@H](CCCNC(=N)N)C(=O)NCC(=O)N[C@@H](CC(=O)O)C(=O)N[C@@H](CC(C)C)C(=O)N[C@@H](C)C(=O)N[C@@H](Cc6ccc(O)cc6)C(=O)N6CCC[C@@H]6C(=O)N5C)nn4)CC3)nn2)N(C)C(=O)[C@H]2CCCN2C(=O)[C@H](Cc2ccccc2)NC(=O)[C@H](C)NC1=O (68Ga complex, metal not drawn) [Y2] | 1.5 ± 1.28 | 2.26 ± 0.26 | 1.08 ± 0.13 | 92 ± 12.2 | 3.81 ± 0.53 | 3.37 ± 0.68 | 4.8 ± 0.5 | 0.72 ± 0.15 | 0.65 ± 0.12 | 2.55 ± 0.27 | 2.51 ± 0.33 | 7.17 ± 0.58 | 7.95 ± 1.02 | 8.8 ± 6.2 | 3.5 ± 0.5 | 7.4 ± 0.6 | 0.1 | 2.1 ± 0.2 | 2.4 ± 0.4 | -1.5 ± 0.2 | tissue to tissue ratio at 1.5 h (in vivo; tumor/organ ratio Lung): 1.7 ± 0.2; tissue to tissue ratio at 1.5 h (in vivo; tumor/organ ratio Muscle): 11.4 ± 2.4; tissue to tissue ratio at 1.5 h (in vivo; tumor/organ ratio Pancreas): 12.7 ± 2.9; tissue to tissue ratio at 1.5 h (in vivo; [4]): 3.1 ± 0.5; tissue to tissue ratio at 1.5 h (in vivo; tumor/organ ratio Spleen): 3.2 ± 0.7; tissue to tissue ratio at 1.5 h (in vivo; [5]): 1.1 ± 0.1; log D7.4 [1]: −1.4 to −1.5 |
| CC(C)C[C@@H]1NC(=O)[C@H](CC(=O)O)NC(=O)CNC(=O)[C@H](CCCNC(=N)N)NC(=O)[C@H](Cc2ccccc2)NC(=O)[C@H](CCCCNC(=O)CCc2cn(CCCNC(=O)CCP(=O)(O)CN3CCN(CP(=O)(O)CCC(=O)NCCCn4cc(CCC(=O)NCCCC[C@H]5C(=O)N[C@@H](Cc6ccccc6)C(=O)N[C@@H](CCCNC(=N)N)C(=O)NCC(=O)N[C@@H](CC(=O)O)C(=O)N[C@@H](CC(C)C)C(=O)N[C@@H](C)C(=O)N[C@@H](Cc6ccccc6)C(=O)N6CCC[C@@H]6C(=O)N5C)nn4)CCN(CP(=O)(O)CCC(=O)NCCCn4cc(CCC(=O)NCCCC[C@H]5C(=O)N[C@@H](Cc6ccc(O)cc6)C(=O)N[C@@H](CCCNC(=N)N)C(=O)NCC(=O)N[C@@H](CC(=O)O)C(=O)N[C@@H](CC(C)C)C(=O)N[C@@H](C)C(=O)N[C@@H](Cc6ccccc6)C(=O)N6CCC[C@@H]6C(=O)N5C)nn4)CC3)nn2)N(C)C(=O)[C@H]2CCCN2C(=O)[C@H](Cc2ccccc2)NC(=O)[C@H](C)NC1=O (68Ga complex, metal not drawn) [Y1Y] | 1.57 ± 0.41 | 2.54 ± 0.37 | 1.54 ± 0.61 | 91.2 ± 9.95 | 4.1 ± 0.84 | 4.39 ± 0.46 | 6.76 ± 2.02 | 0.75 ± 0.17 | 0.64 ± 0.11 | 2.72 ± 0.36 | 3.85 ± 0.86 | 6.78 ± 0.72 | 8.16 ± 2.01 | 5.3 ± 1.5 | 3.2 ± 0.7 | 5.7 ± 2 | 0.1 | 2 ± 0.5 | 1.8 ± 0.3 | -1.5 ± 0.1 | tissue to tissue ratio at 1.5 h (in vivo; tumor/organ ratio Lung): 1.2 ± 0.2; tissue to tissue ratio at 1.5 h (in vivo; tumor/organ ratio Muscle): 11.2 ± 3.4; tissue to tissue ratio at 1.5 h (in vivo; tumor/organ ratio Pancreas): 12.7 ± 2.9; tissue to tissue ratio at 1.5 h (in vivo; [4]): 3 ± 0.7; tissue to tissue ratio at 1.5 h (in vivo; tumor/organ ratio Spleen): 2.2 ± 0.5; tissue to tissue ratio at 1.5 h (in vivo; [5]): 1.2 ± 0.2; log D7.4 [1]: −1.4 to −1.5 |
